We go through one substance from paper PMC12517307.

For the assay, the target named is p53 (UniProt P04637).
p53, sequence (P04637 whole entry): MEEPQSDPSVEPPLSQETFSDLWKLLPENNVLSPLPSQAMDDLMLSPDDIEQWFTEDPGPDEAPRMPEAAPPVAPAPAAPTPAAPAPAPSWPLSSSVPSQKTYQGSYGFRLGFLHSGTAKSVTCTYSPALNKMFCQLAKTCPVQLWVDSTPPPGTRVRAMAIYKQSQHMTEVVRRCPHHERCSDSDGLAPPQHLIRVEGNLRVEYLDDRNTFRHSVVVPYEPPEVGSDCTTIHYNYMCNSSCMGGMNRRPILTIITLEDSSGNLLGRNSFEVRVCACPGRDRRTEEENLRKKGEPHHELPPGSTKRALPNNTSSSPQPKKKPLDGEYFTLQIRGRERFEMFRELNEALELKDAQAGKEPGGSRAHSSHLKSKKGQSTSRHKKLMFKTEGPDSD

Consider p300 acetyl transferase, Q09472 1-2414, for which the p53 acetylation (IP with anti-p53, blot with anti-acetyl-lysine) in 3T3-L1 adipocytes overexpressing p53 and p300: reduction by NDN against control adipocytes; reversed by further addition of p300 was 51%.
